Experimental findings from patent publication US20180216094A1 (University of California, published 2018) are described below.

This experiment deals with T1, FXIS557A catalytic domain (catalytically inactive catalytic domain of human FXI, Ile370 to Ala606 of SEQ ID … (human)).
T1 construct: The range 20-264 is worked out from 19 signal residues + 237 domain residues + 8 His; also called FXIS557A catalytic domain decoy; decoy
The experiment is described as follows: SPR (Biacore T200), biotinylated FXIS557A catalytic domain captured on CAP chip, DEF Fab injected, 37 C, 1:1 Langmuir fit. Here is the method:
Binding affinity was measured using a Biacore T200 Instrument (GE Healthcare). Recombinant FXIS557A catalytic domain was biotin labeled via primary amines and captured on a Biacore CAP chip (GE Healthcare). Experiments were performed at 37° C. using a 30 μ/min flow rate in 10 mM HEPES (pH 7.4), 150 mM NaCI and 0.005% v/v Surfactant P20 (HBSp) buffer (GE Healthcare). After each DEF Fab injection, the chip surface was regenerated with a solution of 6 M guanidine-HCl and 0.25 M NaOH, coated with the CAP reagent and new FXIS557A was captured. All data was analyzed using the Biacore T200 Evaluation software and background and buffer subtracted data fit to a 1:1 Langmuir binding model. Results were reported as the mean of two experiments.
(In general: Surface plasmon resonance follows binding to a sensor surface in real time, without labels.)

One may read the koff as a measure of how fast the partners let go of each other. Read a high koff as fast dissociation. For orientation: kon means the rate constant with which the complex forms. High values mean fast association, low ones slow association.

B1: DEF Fab (Fab, V domains shown)
VH: EVQLVQSGAEVKKPGASVKVSCKASGYTFTGYYMHWVRQAPGQGLEWMGWIDPDEGDTNYAQKFQGRVTMTRDTSISTAYMELSRLRSDDTAVYYCARLASGFRDYWGQGTLVTVSS
VL: DIVMTKSPSSLSASVGDRVTITCRASQGIRNDLGWYQQKPGKAPKRLIYAASSLQSGVPSRFSGSGSGTEFTLTISSLQPEDFATYYCLQHDIYASTFGPGTKVDIKR
notes: Fab form of antibody DEF
On to B1, for which the koff came to 0.000445 s⁻¹ and the kon amounted to 2.95e+06 M⁻¹ s⁻¹.
